The record followed here is PMC12853182, “Dynamic acetylation of a conserved lysine impacts glycerol kinase activity and abundance in the haloarchaeon Haloferax volcanii” (The Journal of Biological Chemistry, 2025).

One may read the stoichiometry N as the number of molecules, sites or subunits per partner or assembly.

This series concerns the molecule itself. As to the kind of experiment: SEC; Superdex 200 HR 10/300 GL, 50 mM HEPES pH 7.5, 2 M NaCl, 1 mM DTT, without glycerol; His-HvGK from cells grown in ATCC, GluMM or FruMM; mass by standard curve.

B1: N-terminally His-tagged Haloferax volcanii glycerol kinase (His-HvGK), wildtype, purified from H. volcanii (enzyme, UniProt D4GYI5 1-510, looked up)
chain: MSGETYVGAIDQGTTGTRFMVFDHDGKVVANAYEKHEQIYPEPGWVEHDANEIWDNTKQVIDAALSSAGLDAEQLEAIGITNQRETTLVWDRETGQPIHNAIVWQDRRTTDRIETLEAEGKTDDVRAKTGLEPDAYFSATKAEWLLDNSDPIKLQRSRPEDIRDRAADGELAFGTIDTWLIYNLTGNHITDVTNASRTMLFNIHDMEWDDELLDEFNVPRELLPEVRPSSDDDYYGTTDADGFLGAEVPVAGALGDQQAALFGQTCFDAGDAKNTYGTGSFMLMNTGDEAVMSEHGLLTTVGFQRSGEPVQYALEGSIFITGAAIEWLEDMTLIDNAAESEKLARSVESTDGVYFVPAFTGLGAPHWDQRARGTIVGMTRGTRREHIVRATLESIAFQTRDVAEAMESDSEIDLSSLRVDGGAVKNNFLCQLQSNILDTEIVRPQVDETTALGAAYAAGLAVGYWETLDELRENWQVDREFAPKDPQNVEHRYGRWKEAVDRSLDWAREE
modifications: acetyl-lysine at K153, partial occupancy by AQUA-MS (50% in FruMM, 33% in ATCC rich medium, 17% in GluMM)
notes: Glycerol kinase (GlpK) of Haloferax volcanii, UniProt D4GYI5, gene hvo_1541; theoretical molecular weight 56.7 kDa monomer; The glpK gene was amplified and cloned into a pJAM503 backbone modified for an N-terminal His-tag fusion (pJAM4351); also called His-HvGK wt; HvGKHv; source: H. volcanii, expressed from a plasmid, cells grown in ATCC 974 rich medium, GluMM or FruMM; purified (Ni-NTA); not …
With B1, the “stoichiometry N” value came to 2.
